In data set [1] the target is recombinant troponin I (cardiac troponin I) (UniProt P19429 P19429:2-210). The experiment in a line: AC voltammetry; MB redox current decreases on troponin I exposure; aptamer immobilised on gold microstructures in perfused pig skin (600 ng/mL perfusate) and on gold disk electrode in 150 mM PBS pH 7.4. The settings on record: label: methylene blue.
The next data set concerns the target bovine serum albumin (Bos taurus, UniProt P02769 P02769:25-607). The data set can be described thus: AC voltammetry specificity control; 50 ng/mL BSA in PBS gave little change on aptamer-functionalised gold disk electrode. The settings on record: label: methylene blue.

bovine serum albumin, sequence (P02769 25-607, one chain of several): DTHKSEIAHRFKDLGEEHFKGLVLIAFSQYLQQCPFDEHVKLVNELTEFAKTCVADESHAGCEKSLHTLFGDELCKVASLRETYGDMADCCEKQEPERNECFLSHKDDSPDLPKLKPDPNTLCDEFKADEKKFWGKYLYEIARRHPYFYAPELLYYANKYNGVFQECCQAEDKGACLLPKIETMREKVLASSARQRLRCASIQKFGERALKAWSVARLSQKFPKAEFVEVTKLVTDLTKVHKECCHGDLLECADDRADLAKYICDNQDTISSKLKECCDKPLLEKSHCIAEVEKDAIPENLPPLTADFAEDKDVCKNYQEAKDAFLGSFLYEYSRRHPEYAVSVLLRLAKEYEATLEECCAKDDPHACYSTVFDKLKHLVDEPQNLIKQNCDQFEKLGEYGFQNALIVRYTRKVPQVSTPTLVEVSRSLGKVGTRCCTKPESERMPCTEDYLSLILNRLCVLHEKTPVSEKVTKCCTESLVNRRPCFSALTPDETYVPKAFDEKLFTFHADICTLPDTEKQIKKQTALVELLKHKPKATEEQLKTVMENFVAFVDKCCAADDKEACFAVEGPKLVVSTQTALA
recombinant troponin I (cardiac troponin I), sequence (P19429 2-210, one chain of several): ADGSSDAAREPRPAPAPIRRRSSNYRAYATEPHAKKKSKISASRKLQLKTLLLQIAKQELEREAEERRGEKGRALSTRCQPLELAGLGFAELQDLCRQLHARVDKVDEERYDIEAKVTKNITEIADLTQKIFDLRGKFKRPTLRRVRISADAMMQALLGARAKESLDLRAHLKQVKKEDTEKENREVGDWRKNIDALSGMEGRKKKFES

B1: troponin I aptamer (thiol/methylene blue) (ssDNA)
DNA: AGTCTCCGCTGTCCTCCCGATGCACTTGACGTATGTCTCACTTTCTTTTCATTGACATGGGATGACGCCGTGACTG
modifications: 5'-SH-(CH2)6, 3'-methylene blue
With B1, the binding result in data set [1] is listed as “binds”; with bovine serum albumin, “no binding”.

For the origin of these results see patent US20210338158A1, “MEASUREMENT SYSTEM” (WearOptimo Pty Ltd, published 2021).
